Measurements taken from patent US20180087118.

B1: Human KDM4A 1-347 (His6-tagged, expressed in E. coli from pET28a) (protein)
chain: MASESETLNPSARIMTFYPTMEEFRNFSRYIAYIESQGAHRAGLAKVVPPKEWKPRASYDDIDDLVIPAPIQQLVTGQSGLFTQYNIQKKAMTVREFRKIANSDKYCTPRYSEFEELERKYWKNLTFNPPIYGADVNGTLYEKHVDEWNIGRLRTILDLVEKESGITIEGVNTPYLYFGMWKTSFAWHTEDMDLYSINYLHFGEPKSWYSVPPEHGKRLERLAKGFFPGSAQSCEAFLRHKMTLISPLMLKKYGIPFDKVTQEAGEFMITFPYGYHAGFNHGFNCAESTNFATRRWIEYGKQAVLCSCRKDMVKISMDVFVRKFQPERYKLWKAGKDNTVIDHTLPT
B2: Human KDM4B 1-348 (His6-tagged, expressed in E. coli from pET28a) (protein)
chain: MGSEDHGAQNPSCKIMTFRPTMEEFKDFNKYVAYIESQGAHRAGLAKIIPPKEWKPRQTYDDIDDVVIPAPIQQVVTGQSGLFTQYNIQKKAMTVGEYRRLANSEKYCTPRHQDFDDLERKYWKNLTFVSPIYGADISGSLYDDDVAQWNIGSLRTILDMVERECGTIIEGVNTPYLYFGMWKTTFAWHTEDMDLYSINYLHFGEPKSWYAIPPEHGKRLERLAIGFFPGSSQGCDAFLRHKMTLISPIILKKYGIPFSRITQEAGEFMITFPYGYHAGFNHGFNCAESTNFATLRWIDYGKVATQCTCRKDMVKISMDVFVRILQPERYELWKQGKDLTVLDHTRPT

Experiments:
[1] = molecular target: T1, H-TKQTARK(Me3)STGGKAPR-OH (TR-15, H3 3-17 K9me3 peptide)
T1 chain: TKQTARKSTGGKAPR

[2] = molecular target: H3 31-41 K36me3 peptide, P68431

Row | Protein | Km (µM), FDH-coupled demethylase assay [1] [µM] | Km (µM), FDH-coupled demethylase assay [2] [µM]
1 | B1 | 92.5 | 170
2 | B2 | 88.3 | 138
